Assay results published in a protein production outcome set (Wang et al. 2014).

Assay: label from the status in PepcDB records

With “MLNDILTGYGIFILEILTILLLILAVVGLIISYRQHNKSKVGELEIKDLSEEFNEQVRLLRDFNLSEEEQKQRTKAEKKAEKQNAKKRKEKLKKGETLEDEKKACVYVLDFCGDISASETTALREEISAILNVAKSEDEVLLRLESPGGIVHNYGFAASQLSRLKQKGIKLTVAVDKVAASGGYMMACVADKIVSAPFAVIGSIGVVAQIPNVHRLLKKHDVDVDVMTAGEFKRTVTVLGENTEKGKQKFQQELEETHKLFKQFVSQNRPCLDIDKIATGEHWFGQQAIALQLVDEISTSDDLILEKMKEKQVLNVKYRLKKSLIKKFGRQAEESAINIIHRYSTKQSRDFMYLEHHHHHH” as the sequence, how does the protein production read?
Its protein production is “failed”.

With “MLNDKMYHGKGLRKGDLRLYHELYNLQVMKWPVNPLDVIIEKIKRREGNGVIADIGCGEARIAREFENVISLDLHPVGKDVIPCDMRRRIPLDDGSVDVAVCCLSMMVEDIAVPTKEINRILRNGGHWYIAEVRSRIPSVGLLERKFESLGFDVEHVDVSNAQFVLFVLQK” as the sequence, how does the protein production read?
The protein production was “failed”.

For “MLNGDVTLRAWTNIWMFLIYGLAIFLEPIHNNIRHLPILVRGGIYSTLIIISEYITGSFLCFMLGTCPWHYSSGPFTIQGITRLDYFPYWLIAGLLFEKLHDALLKISINVEQSSS”, which protein production is on record?
The protein production was “failed”.

With “MLNKFKKIVGVSVLVGCLGVLQAKNSLFVLPYEQKDALNSLVSGISNARESVKIAIYSFTHRDIARAIKSVASRGIKVQIIYDYESNHHNKQSTIGYLDKYPNTKVCLLKGLKAKNGNYYGIMHQKVAIIDDKIVFLGSANWSKNAFENNYEVLLKTDDTETILKAKSYYQKMLGSCVGF” as the sequence, how does the protein production read?
Its protein production is “failed”.

With “MLNLFILLLERVGLIILIAYILMNINHFKTMMNEREKRRSQWQLIIIFGCFSMISNFTGIQIRGDEIINGTVYNHLDPDASLANTRVLTIGVSGLIGGPFVALAVAVISGMYRVYIGGADAYIYLISSIFIALISGYFGYKAMRANRYPTIVKGACIGGTTEIIQMLCILLFSDNTEHAWTLVKLIAIPMISINSIGTAIFLSIILSTIKQEEETRAIQTHDVLQLANQTLPYFRSGLNEQSAKKAAEIILNLMRVSAVAITNRKDILTHVGVASDHHVAQKAIITNLSKRAIQSGTLKEAYSSEEIGCNHPGCPLEAAIVVPLRVKNDVVGTLKLYFTNKYDVNYSDKQLATGLAEIFSSQLELGQAETQSALIRDAEIKSLQAQVNPHFFFNAINTISALIRIDSEKARELLLQLSQFFRSNLQGARNNTISLEKELQQVESYLSLEQARYPDRFNVSFDIDRTCYGALVPPFAIQILVENAIKHAFKNRKYNNEIIVKAHKAQTGLVISVSDNGHGIPYEKLDKIGKTSVHSESGTGSALENLNRRLDGLFGYEASLQIHSDHQGTQVSCTIPYHNLEEEKIESNHCR” as the sequence, how does the protein production read?
Its protein production is “failed”.

With “MLPASNGSVSLPQPKEWENGCRLGFIHMAAKGIVQVISAQVLSGTTLTLGWLGYVPLLIWAVSRVRWVELFTDRRRQHLLFGTVFCLFALWLVRRDFDTGVSYHFIGMTAVTLLLDWPLAVLGGFMAQLGLLALGRQDLAALGVNGLMLIGLPVLITEVCAIVVERAQPRNLFVYIFCSGFFPAALTVLVCVPAALGVLWLDGRFALPEWLSDFVGYLWLMMFPEAFINGMVISALVVFCPEWLETFNRTRYLQAPWKEDER” as the sequence, how does the protein production read?
Its protein production is “failed”.

For “MLPAYIRIHDQIKKEIDEGLWKIGDRLPSERDLAERFEVSRMTLRQAITLLVEEGILERRVGSGTYIASSRVQEKMRGTTSFTEIVKSQGKTPSTKLISYRRVHPSEQEIKFLDIKPKSYIIRMERVRYADDIPVVFEVTAIPEKIIKSFKKEAITKHFFKTLTDHGFVIGKSQQTISASNANEMTADYLAISRGHAVLTLAQVSYFENGMPFEYVRSQYVGERFEFYLENK”, which protein production is on record?
Its protein production is “not failed”.

With “MLPLEPYLTQTSAVPQMSHFMCHSPTHKPQGLLPWAPFHQASVSLYPISPWPSESVCPPTCPGGASCWFPAGNAWDRVELGFLGFGAGGVSIAVPGFPLSCGQGCCAGGWLGHGARFPAKLRAFPQVIRRGWLTINNISLMKGGSKEYWFVLTAESLSWYKDEEEKEKKYMLPLDNLKIRDVEKGFMSNKHVFAIFNTEQRNVYKDLRQIELACDSQEDVDSWKASFLRAGVYPEKDQAENEDGAQENTFSMDPQLERQVETIRNLVDSYVAIINKSIRDLMPKTIMHLMINNTKAFIHHELLAYLYSSADQSSLMEESADQAQRRDDMLRMYHALKEALNIIGDISTSTVSTPVPPPVDDTWLQSASSHSPTPQRRPVSSIHPPGRPPAVRGPTPGPPLIPVPVGAAASFSAPPIPSRPGPQSVFANSDLFPAPPQIPSRPVRIPPGIPPGVPRRPPAAPSRPTIIRPAEPSLLD” as the sequence, how does the protein production read?
The protein production was “not failed”.

For “MLQQLFASPILSVQTLHPSYEDHASDVFLVQTKDEEVIVRSSKMTEEPNNDFWWGCKNLFGIDPRNVHHLEYIHELLKKHTNLPIPTILQKHVLNGRKYVSVEKLTGSTLQSFVGQSDSILFSLGKGLAEIHSFQAEFIGNPSGTFQVPLEEFKSHILKVSKELVNRFYSDNTSIRNAFSTFESQLSSLPTPKEATLVLIDMDPTQFLSDGTTITGLVDTEAYAVAPRELDFISLEYVFTEKEAHAFKQGYETIMPIPNLVECRHPYRYLYRLLSIQGSVELEKWLSHPSYF”, which protein production is on record?
The protein production was “failed”.

With “MLQRTLSSIQIIGGVTQALFILSICLASINPPTEFTMRRTMAMSMRKYSSHSTPRMARIPTTFVVIVLRPTILSGSVGPVITLYIAIKAVPRSTQTPATKTFS” as the sequence, how does the protein production read?
Its protein production is “failed”.

With “MLQSHIMAGNCTVKPARMTRAPYARHELKSTNSGCDESPAALERRVAELLLVADFGAVVGSILDPRQVCEVASSWLGETLGWQMLSVCCHDFSTGTMRGGAGRGRHLSKKRQEGATSTVFIAAAQKGLSDAADVRTIPFPDGSGTLSLSRQSLAESQYSDEFFGGVVENLARSLAAARECDRLKNLSMRDHLTGLYNRRVFEAMLEVEARKRTTKPFSLLLIDLDDFKRVNDTYGHGAGDQVLVAVAKMLRLSFRKSDVVSRYGGEEFGVLLPDTSQDSARVVAERFRQNVATLSLPVNKEKIMPTVSVGIASVTLRLGIEVADVIEEADRALYQAKVTGKNRVCSSLLGENS” as the sequence, how does the protein production read?
The protein production was “failed”.

Which protein production does the source give for “MLQYILAEHPFFVATGALYAAAAGFYAAAWRSTRALVGRAATALLCAALAFNAGLIVERWIEAGRAPFKSLFESLVFFAFTTGVVYLAFERLYRTRVFGALAALLTLALLGYALGKWDAEIVKLPPALQSAWFVPHVVVYFVGYAAVSLAALLAAVQLLAPRVPLLQRLTTLRAGTILTGKALDLEQMTYELIRFGFVLLTVGLLVGSVWAKSAWGDFWVWDPKENWSLVTWLVYGAYLHLRKVRGWRGDRAAWLVLLGFAVVMFTYLGMSMLPTAEESAHVYTG” here?
The protein production was “failed”.

Which protein production does the source give for “MLRAIYRALWWLVAPLAVLRLVWRSRKERGYREHIGERFGFGPGRALARRIDEATPVVWVHAVSVGETRAAQPLVDALLRARPDVHVLLTHMTPSGRATGEQIFGERVSRCYLPYDLPHAVRRFLRAWRPSLGLVMETEVWPTLIDECRRADVPLVLTNARMSARSFGRAAKFGAAAREVFGGFSRVLAQSPADAERLTALGARNVAVLGNLKFDMTTPPELAARGRAWRAAIGERPVWVAASTRDGEEALVLDAFAALRTPDALLILVPRHPQRFAEVAALVERRGLRHARRTEWAADAAAAAAGGPAAPALPPDVAVLLGDSMGELGAYYAAADVAFIGGSLLPLGGQNLIEACAVGVPVLIGPHVFNFTQATADAVTAGACAQVQDPADLARTLDALFADHARRAAMGAAGAAFAARHRGATARTVDVLNALLPPPRVASSANDEGEAGGLDAGTAID” here?
Its protein production is “failed”.

For “MLREAEVVVLGAGVAGLTLARLLWERGRKVLVVAEALGEASRPPVALVNPLRGRRFTLAEEGERALAAALAFYGRFVPLHLGVFRPVPEEDRPKVAGRLSRLKHRWEKEGVLLEEAFWLEPRPLLARLAEGLPLLRGRVLAWEPPWLVLEGGGRVRGEVLVYAGGGRGAHLLGLEGRHVPGLVLTLLDYFPRAVSYRVYLAGAALGGSYLPGEEGYRLPPPTEGEVEWLLQGAEALVGYRPRVASLWRGVRFRLSSFLFPVEGGFALTGFGSTGFLYAPLLAERLAERLLEHHHHHH”, which protein production is on record?
Its protein production is “failed”.

With “MLRGCGKLKKNLPCSVHTETPIVLKTTARFLLGLSLVLLSSSVATAQVVLPRTLELNAKEMEQNGFVVAQEALQLAQFQQFEDALVRAKLAVQLAPRAHEIWALLGGLYLTVNQPKDAVPALEQSLKLNDKNPGAYFNLGSAHFRLGRYDAAARAIEQGLALKPNATEEWFNLGNAYLKLGQKDRAIEQYRRSLRLDRRFWPAYTNIGLVLYEQGHIRQAVKNWEQAADIDPKASEPKLALATALLQLGNEARALQLAEEALRLDSRYGTVEFQRENLWGDRLVADTQILLAKPPLRALMSQLQPEQSALPQP” as the sequence, how does the protein production read?
Its protein production is “failed”.

With “MLRIFIPTSNGKISRRRYIFSFILINFIFAFLIIFFNDGEAGFLVIVSTIVLHYLVINMNCQRLRDSGFIYIKTYVFGTLAVYIISIITMIAEDFACSGNGSMIFLICYFSTFSMLMLAPTDSSKQ” as the sequence, how does the protein production read?
Its protein production is “failed”.

With “MLRLYKTIGRFNLINFQEDYPMKILVVGTGAREHAICSALADEATIYSVMGNRNPGISRLAGNSLLLLKLTPKVVRFASEKGVDMAFIGPEAHLEAGLVDALEEAGIPSVGPTRDAARIETDKSFMRKLFEDYRIPGSITYRVFSDPEELREFMEDFDSEAVVKPVGLTGGKGVKIVGEHLRDNMEALKYATEVIEKRIGGHPSVVIEERVVGEEFTVQAFSDGEHIVPMPAVQDHPHAYEGDQGPITGGMGSYSDSDGLLPFLTQKDYEDAVEIMQRTVDAIRKETGPYRGILYGQFMLSADGPKLIEYNARFGDPEAMNVLPLLESSMLEICEGIVDGNLKSASFMNLATVCKYLVPEGYPESGVAGAEIKVDEKKIEDMGVITYYAAVNQEDDHIYTSSSRALALVAPADDIYSAEELCEEATAHVKGRLYHRRDIGTRELVEKRIKHMEDLRS” as the sequence, how does the protein production read?
The protein production was “failed”.

For “MLRNIIRFKGFGKGTSGGFLKPVSFRVQLTRCYRYDNGPSYRRFNNGEYSQKSSFKSILLDKSSRKYLALLFGGCSLFYYTHLDKAPVSDRSRFIWVSRPLELTIGNYTYKSIWRQTQQEILPPQHPLSIKIENIFMKIVEAAYKDPSVDNSLLDGIKWEIHVVNDPTASPNAFVLPGGKVFIFSSILPICANDDGIATVLAHEFAHQLARHTAENLSKAPIYSLLGLVLYTVTGAHAINNILLDGFLRMPASRQMETEADYIGLMIMSRACFQPQESIKVWERMANFEKQMNRGGVVNMEFLSTHPASTRRIENMSKWLPKANEIYEQSDCSSMGNYYKSFFSM”, which protein production is on record?
Its protein production is “failed”.

For “MLRPRTIKEGSVGLFALLGLFIIGGIVLWLRGGAFGNPGYEVLVQFDDASGLQVGGAVRYRGVPVGRVAKLIPGSNGILAQLEISSTQLRIPADVQVEISRYGLLGEAAIDMIPDRQLSEAALAIDPLSADCAESDKILCDGDELEGQAGTQLTNSMARLAQAYSEPEFVADINATVKSANLAAARIAAMSAEITALSKTANQQVRGFERTSEAIAKAADNASLLTSRVDQVVQTNQGYINRTIEEASLLMVNLNQLVGENRAQFNLTLKSIETTNRDLQAIGQEIQTAVGTINHGLAAIDTQKVTNDLALLMENAAVTSNNIRQISNDLNDPTLMLTLQQTLDAARLTFENAQKITSDVEQLTGDPAFRNNLRKLVDGLGQLVSSTENLQDRVYTAHTLERSGQQLRFQLDHQQQLALYYEQWGVINPVPASGSPSPQIQTPKIKPPQPKENQGK”, which protein production is on record?
Its protein production is “failed”.

For “MLRPSVSLAFASSLPQQSVASRAVQRSPLPRRASGHGATEARGMPSHCFIRFCCIVLLAITGCSPAAQSRYAPERNFSDPKALALALAAEQGDAEEVRRLMKVEGVNPDTIFSKDGYPLLFWPIFTHSPAGLKAMLDNGADPNVALPYQTLDRGVRNNPNAMVWAAEQDDPIYLKMLLDHGGNPNTRNANNESLLFHAFIKQNKWDNIKLLVERGADINAVAGMGNSITAAYAIRGGFDFVYWLLQHGADPTIEFAYGNPVHLKDSGIIEAIFWHPGNPKDPQWQRQCQQWLLKRGYERPPLPENYRSMRKAFHFPSEEKEIPLL”, which protein production is on record?
The protein production was “failed”.
